B1: … (SEQ ID NO:2) with deletion of the Met at the 6th position from the N-terminus (peptide)
peptide: GWTHPFEQKG
notes: Deletion made by design ([-]) or imitated by synthesis conditions [1]; (solvent alone) and [2]; (no reagent); also called deletion control peptide; synthesis conditions [1] and [2]
B2: … (SEQ ID NO:1) with deletion of the His at the 10th position from the N-terminus (peptide)
peptide: GFEDYLGEYG
notes: Deletion made by design ([-]) or imitated by synthesis conditions [1]; (solvent alone) and [2]; (no reagent); also called His deletion peptide; synthesis conditions [1] and [2]

Target: T1, streptavidin (UniProt P22629 37-163, limits assumed)
T1 construct: Applied in solution to the peptide array and detected by fluorescence; also called streptavidin receptor; receptor
T1 sequence (P22629 37-163 limits assumed): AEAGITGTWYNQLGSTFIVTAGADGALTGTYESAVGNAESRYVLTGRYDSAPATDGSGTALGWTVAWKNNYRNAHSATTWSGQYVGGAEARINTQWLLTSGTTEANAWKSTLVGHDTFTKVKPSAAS
Experiment: peptide array, fluorescence signal of bound streptavidin

Binder | binding result
B1 | no binding
B2 | no binding
